Laboratory results: patent publication US20220363770A1 (Amgen, published 2022)

T1: human PAC1 receptor (human, UniProt P41586 24-468)
T1 sequence: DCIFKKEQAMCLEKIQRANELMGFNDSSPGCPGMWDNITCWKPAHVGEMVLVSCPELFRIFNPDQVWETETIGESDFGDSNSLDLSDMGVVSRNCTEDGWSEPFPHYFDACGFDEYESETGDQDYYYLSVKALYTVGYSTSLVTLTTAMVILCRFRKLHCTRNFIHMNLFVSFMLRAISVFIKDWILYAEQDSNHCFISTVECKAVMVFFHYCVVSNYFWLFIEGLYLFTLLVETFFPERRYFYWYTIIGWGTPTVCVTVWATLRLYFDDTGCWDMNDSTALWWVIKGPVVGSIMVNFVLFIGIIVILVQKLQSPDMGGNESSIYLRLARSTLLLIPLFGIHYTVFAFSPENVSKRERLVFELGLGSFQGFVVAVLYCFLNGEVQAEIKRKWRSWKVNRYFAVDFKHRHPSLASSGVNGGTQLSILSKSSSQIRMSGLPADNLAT


Columns and labels:
Assay in all cases: cell-based or functional assay
human PAC1 receptor = molecular target: T1, human PAC1 receptor
human CGRP receptor = human CGRP receptor (human, UniProt Q16602 23-461; O60894 27-148)
[1] = molecular target: human CGRP receptor (human CRLR / human RAMP1 heterodimer) (human, UniProt Q16602 23-461; O60894 27-148)
Sequence of human CGRP receptor (human CRLR / human RAMP1 heterodimer) (Q16602 23-461 limits assumed, chain 1 of 2): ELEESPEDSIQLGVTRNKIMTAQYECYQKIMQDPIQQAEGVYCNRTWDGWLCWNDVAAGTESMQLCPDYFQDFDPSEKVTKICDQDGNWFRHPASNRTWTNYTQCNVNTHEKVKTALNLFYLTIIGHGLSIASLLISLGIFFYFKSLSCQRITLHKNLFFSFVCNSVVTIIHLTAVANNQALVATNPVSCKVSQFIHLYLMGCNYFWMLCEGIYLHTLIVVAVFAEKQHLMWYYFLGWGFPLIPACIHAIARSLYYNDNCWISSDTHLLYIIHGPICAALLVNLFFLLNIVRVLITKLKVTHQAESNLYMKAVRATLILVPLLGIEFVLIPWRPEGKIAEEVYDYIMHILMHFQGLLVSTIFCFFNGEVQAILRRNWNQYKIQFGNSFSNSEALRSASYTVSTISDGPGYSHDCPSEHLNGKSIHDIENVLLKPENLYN
Sequence of human CGRP receptor (human CRLR / human RAMP1 heterodimer) (O60894 27-148 limits assumed, chain 2 of 2): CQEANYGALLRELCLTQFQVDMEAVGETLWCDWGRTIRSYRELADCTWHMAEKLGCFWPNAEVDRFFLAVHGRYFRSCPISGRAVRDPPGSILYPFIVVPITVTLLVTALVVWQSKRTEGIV

Sequence of human CGRP receptor (Q16602 23-461 limits assumed, chain 1 of 2): as the sequence (Q16602 23-461 limits assumed, chain 1 of 2) above
Sequence of human CGRP receptor (O60894 27-148 limits assumed, chain 2 of 2): as the sequence (O60894 27-148 limits assumed, chain 2 of 2) above

| Fold-improvement over 29G4v22 Ab (human PAC1 receptor) | IC50 (human PAC1 receptor) | Fold-improvement over 4E4 Ab (human CGRP receptor) | IC50 (human CGRP receptor) | Average IC50 (nM), cell-based cAMP assay, SK-N-MC cells, 3 nM human α-CGRP [1] | Fold-improvement over 4E4 Ab (IC50, cAMP assay) [1] | Run 1 IC50 (nM), cell-based cAMP assay, SK-N-MC cells, 3 nM human α-CGRP [1] | Run 2 IC50 (nM), cell-based cAMP assay, SK-N-MC cells, 3 nM human α-CGRP [1] | Binder |
| --- | --- | --- | --- | --- | --- | --- | --- | --- |
| 3.4 fold | 1.95 nM | 1 fold | 0.52 nM |  |  |  |  | iPS:454735 (bispecific antibody, human IgG1, kappa, lambda, N297G) light 1: QSVLTQPPSVSAAPGQKVTISCSGSYSNIGRYSVSWYQQLPGTAPKLLIYDNNKRPSGIPDRFSGSKSGTSATLGITGLQTGDEADYYCGTWDSRLSAVVFGGGTKLTVLGQPKAAPSVTLFPPSSEELQANKATLVCLISDFYPGAVTVAWKADSSPVKAGVETTTPSKQSNNKYAAKSYLSLTPEQWKSHRSYSCQVTHEGSTVEKTVAPTECS heavy 1: QVQLVESGGGVVQPGRSLRLSCAASGFTFSSFGMHWVRQAPGKGLEWVAVISFDGSIKYSVDSVKGRFTISRDNSKNTLFLQMNSLRAEDTAVYYCARDRLNYYESSGYYHYKYYGMAVWGQGTTVTVSSASTKGPSVFPLAPSSKSTSGGTAALGCLVKDYFPEPVTVSWNSGALTSGVHTFPAVLQSSGLYSLESVVTVPSSSLGTQTYICNVNHKPSNTKVDKKVEPKSCDKTHTCPPCPAPELLGGPSVFLFPPKPKDTLMISRTPEVTCVVVDVSHEDPEVKFNWYVDGVEVHNAKTKPCEEQYGSTYRCVSVLTVLHQDWLNGKEYKCKVSNKALPAPIEKTISKAKGQPREPQVYTLPPSRKKMTKNQVSLTCLVKGFYPSDIAVEWESNGQPENNYKTTPPVLKSDGSFFLYSKLTVDKSRWQQGNVFSCSVMHEALHNHYTQKSLSLSPGK light 2: EIVLTQSPATLSLSPGERATLSCRASKSVGQSLHWYQQKPGQAPRLLIKYASQSLSGIPARFSGSGSGTDFTLTISSLEPEDFAVYYCHQSSRLPFTFGPGTKVDIKRTVAAPSVFIFPPSDEQLKSGTASVVCLLNNFYPREAKVQWKVDNALQSGNSQESVTEQDSKDSTYSLESTLTLSKADYEKHKVYACEVTHQGLSSPVTKSFNRGEC heavy 2: not shown |
| 3.5 fold | 1.92 nM | 0.9 fold | 0.57 nM |  |  |  |  | iPS:454739 (bispecific antibody, human IgG1, kappa, lambda, N297G) light 1: QSVLTQPPSVSAAPGQKVTISCSGSYSNIGRYSVSWYQQLPGTAPKLLIYDNNKRPSGIPDRFSGSKSGTSATLGITGLQTGDEADYYCGTWDSRLSAVVFGGGTKLTVLGQPKAAPSVTLFPPSSEELQANKATLVCLISDFYPGAVTVAWKADSSPVKAGVETTTPSKQSNNKYAAKSYLSLTPEQWKSHRSYSCQVTHEGSTVEKTVAPTECS heavy 1: QVQLVESGGGVVQPGRSLRLSCAASGFTFSSFGMHWVRQAPGKGLEWVAVISFDGSIKYSVDSVKGRFTISRDNSKNTLFLQMNSLRAEDTAVYYCARDRLNYYESSGYYHYKYYGMAVWGQGTTVTVSSASTKGPSVFPLAPSSKSTSGGTAALGCLVKDYFPEPVTVSWNSGALTSGVHTFPAVLQSSGLYSLESVVTVPSSSLGTQTYICNVNHKPSNTKVDKKVEPKSCDKTHTCPPCPAPELLGGPSVFLFPPKPKDTLMISRTPEVTCVVVDVSHEDPEVKFNWYVDGVEVHNAKTKPCEEQYGSTYRCVSVLTVLHQDWLNGKEYKCKVSNKALPAPIEKTISKAKGQPREPQVYTLPPSRKKMTKNQVSLTCLVKGFYPSDIAVEWESNGQPENNYKTTPPVLKSDGSFFLYSKLTVDKSRWQQGNVFSCSVMHEALHNHYTQKSLSLSPGK light 2: EIVLTQSPATLSLSPGERATLSCRASKSVGWSLHWYQQKPGQAPRLLIKYASQSLSGIPARFSGSGSGTDFTLTISSLEPEDFAVYYCHQSSRLPFTFGPGTKVDIKRTVAAPSVFIFPPSDEQLKSGTASVVCLLNNFYPREAKVQWKVDNALQSGNSQESVTEQDSKDSTYSLESTLTLSKADYEKHKVYACEVTHQGLSSPVTKSFNRGEC heavy 2: not shown |
| 2.8 fold | 2.38 nM | 0.9 fold | 0.55 nM |  |  |  |  | iPS:454737 (bispecific antibody, human IgG1, kappa, lambda, N297G) light 1: QSVLTQPPSVSAAPGQKVTISCSGSYSNIGRYSVSWYQQLPGTAPKLLIYDNNKRPSGIPDRFSGSKSGTSATLGITGLQTGDEADYYCGTWDSRLSAVVFGGGTKLTVLGQPKAAPSVTLFPPSSEELQANKATLVCLISDFYPGAVTVAWKADSSPVKAGVETTTPSKQSNNKYAAKSYLSLTPEQWKSHRSYSCQVTHEGSTVEKTVAPTECS heavy 1: QVQLVESGGGVVQPGRSLRLSCAASGFTFSSFGMHWVRQAPGKGLEWVAVISFDGSIKYSVDSVKGRFTISRDNSKNTLFLQMNSLRAEDTAVYYCARDRLNYYESSGYYHYKYYGMAVWGQGTTVTVSSASTKGPSVFPLAPSSKSTSGGTAALGCLVKDYFPEPVTVSWNSGALTSGVHTFPAVLQSSGLYSLESVVTVPSSSLGTQTYICNVNHKPSNTKVDKKVEPKSCDKTHTCPPCPAPELLGGPSVFLFPPKPKDTLMISRTPEVTCVVVDVSHEDPEVKFNWYVDGVEVHNAKTKPCEEQYGSTYRCVSVLTVLHQDWLNGKEYKCKVSNKALPAPIEKTISKAKGQPREPQVYTLPPSRKKMTKNQVSLTCLVKGFYPSDIAVEWESNGQPENNYKTTPPVLKSDGSFFLYSKLTVDKSRWQQGNVFSCSVMHEALHNHYTQKSLSLSPGK light 2: EIVLTQSPATLSLSPGERATLSCRASKSVGQSLHWYQQKPGQAPRLLIKYASQSLSGIPARFSGSGSGTDFTLTISSLEPEDFAVYYCHQSSRLPFTFGPGTKVDIKRTVAAPSVFIFPPSDEQLKSGTASVVCLLNNFYPREAKVQWKVDNALQSGNSQESVTEQDSKDSTYSLESTLTLSKADYEKHKVYACEVTHQGLSSPVTKSFNRGEC heavy 2: not shown |
|  |  |  |  | 0.56 nM | 1 fold | 0.43 nM | 0.68 nM | anti-CGRP receptor variant antibody 10, bivalent monoclonal antibody (antibody, human IgG1, lambda, N297G, V domains shown) VH: QVQLVESGGGVVQPGRSLRLSCAASGFFFGSYGMHWVRQAPGKGLEWVAVISFAGEIEHYVDSVKGRFTISRDNSKNTLFLQMNSLRAEDTAVYYCARDRLNYYESSGYYHYKYYGMAVWGQGTTVTVSS VL: QSVLTQPPSVSAAPGQKVTISCSGSSSNIGNNYVSWYQQLPGTAPKLLIYDNNKRPSGIPDRFSGSKSGTSATLGITGLQTGDEADYYCGTWDSRLSAVVFGGGTKLTVLG |
|  |  |  |  | 0.86 nM | 0.6 fold | 0.73 nM | 1 nM | anti-CGRP receptor variant antibody 09, bivalent monoclonal antibody (antibody, human IgG1, lambda, N297G, V domains shown) VH: QVQLVESGGGVVQPGRSLRLSCAASGFTFSSFGMHWVRQAPGKGLEWVAVISFAGEIDYYVDSVKGRFTISRDNSKNTLFLQMNSLRAEDTAVYYCARDRLNYYESSGYYHYKYYGMAVWGQGTTVTVSS VL: QSVLTQPPSVSAAPGQKVTISCSGSSSNIGNNYVSWYQQLPGTAPKLLIYDNNKRPSGIPDRFSGSKSGTSATLGITGLQTGDEADYYCGTWDSRLSAVVFGGGTKLTVLG |
|  |  |  |  | 0.3 nM | 1.8 fold | 0.28 nM | 0.31 nM | anti-CGRP receptor variant antibody 08, bivalent monoclonal antibody (antibody, human IgG1, lambda, N297G, V domains shown) VH: QVQLVESGGGVVQPGRSLRLSCAASGFTFSSFGMHWVRQAPGKGLEWVAVISFDGSIKYSVDSVKGRFTISRDNSKNTLFLQMNSLRAEDTAVYYCARDRLNYYESSGYYHYKYYGMAVWGQGTTVTVSS VL: QSVLTQPPSVSAAPGQKVTISCSGSYSNIGWWPVSWYQQLPGTAPKLLIYDNNKRPSGIPDRFSGSKSGTSATLGITGLQTGDEADYYCGTWDSRLSAVVFGGGTKLTVLG |
|  |  |  |  | 0.29 nM | 1.9 fold | 0.18 nM | 0.39 nM | anti-CGRP receptor variant antibody 07, bivalent monoclonal antibody (antibody, human IgG1, lambda, N297G, V domains shown) VH: QVQLVESGGGVVQPGRSLRLSCAASGFYFMTYGMHWVRQAPGKGLEWVAVISFDGSIKYSVDSVKGRFTISRDNSKNTLFLQMNSLRAEDTAVYYCARDRLNYYESSGYYHYKYYGMAVWGQGTTVTVSS VL: QSVLTQPPSVSAAPGQKVTISCSGSSSNIGNNYVSWYQQLPGTAPKLLIYDNNKRPSGIPDRFSGSKSGTSATLGITGLQTGDEADYYCGTWDSRLSAVVFGGGTKLTVLG |
|  |  |  |  | 0.14 nM | 3.9 fold | 0.13 nM | 0.14 nM | anti-CGRP receptor variant antibody 01, bivalent monoclonal antibody (antibody, human IgG1, lambda, N297G, V domains shown) VH: QVQLVESGGGVVQPGRSLRLSCAASGFTFSSFGMHWVRQAPGKGLEWVAVISFDGSIKYSVDSVKGRFTISRDNSKNTLFLQMNSLRAEDTAVYYCARDRLNYYESSGYYHYKYYGMAVWGQGTTVTVSS VL: QSVLTQPPSVSAAPGQKVTISCSGSYSNIGRYSVSWYQQLPGTAPKLLIYDNNKRPSGIPDRFSGSKSGTSATLGITGLQTGDEADYYCGTWDSRLSAVVFGGGTKLTVLG |
|  |  |  |  | 0.15 nM | 3.7 fold | 0.14 nM | 0.15 nM | anti-CGRP receptor variant antibody 06, bivalent monoclonal antibody (antibody, human IgG1, lambda, N297G, V domains shown) VH: QVQLVESGGGVVQPGRSLRLSCAASGFTFSSFGMHWVRQAPGKGLEWVAVISFDGSIKYSVDSVKGRFTISRDNSKNTLFLQMNSLRAEDTAVYYCARDRLNYYESSGYYHYKYYGMAVWGQGTTVTVSS VL: QSVLTQPPSVSAAPGQKVTISCSGSYSNIGRKSVSWYQQLPGTAPKLLIYDNNKRPSGIPDRFSGSKSGTSATLGITGLQTGDEADYYCGTWDSRLSAVVFGGGTKLTVLG |
|  |  |  |  | 0.12 nM | 4.6 fold | 0.1 nM | 0.13 nM | anti-CGRP receptor variant antibody 02, bivalent monoclonal antibody (antibody, human IgG1, lambda, N297G, V domains shown) VH: QVQLVESGGGVVQPGRSLRLSCAASGFTFSSFGMHWVRQAPGKGLEWVAVISFDGSIKYSVDSVKGRFTISRDNSKNTLFLQMNSLRAEDTAVYYCARDRLNYYESSGYYHYKYYGMAVWGQGTTVTVSS VL: QSVLTQPPSVSAAPGQKVTISCSGSRSNIGIKAVSWYQQLPGTAPKLLIYDNNKRPSGIPDRFSGSKSGTSATLGITGLQTGDEADYYCGTWDSRLSAVVFGGGTKLTVLG |
